According to patent US20250145722A1 (TRUEBINDING, published 2025):
Changes are numbered by the printed parent chain. Names and notes keep the numbering of the source.

B1: 19B5.2E6 (antibody, mouse IgG2a, V domains shown)
VH: QIQLVQSGPELKKPGETVKISCKASGYTFTTYAMSWVKQAPGKGLKWMGWINTYSGVPTYADDLKGRFAFSLETSASTAYLQINNLKNEDTATYFCARGPYAMDYWGQGTSVTVSS
VL: DIQMTQTTSSLSASLGDRVTISCSASQGINNYLNWYQQKPDGTVKLLIYYASSLHSGVPSRFSGSGSGTDYSLTISNLEPEDIATYYCQQYSQVPYTFGSGTKLEIKR
B2: 4A11.2B5 (antibody, human IgG4 S228P, kappa, V domains shown)
VH: QVQLQQSGPELVKPGASVKISCKASGYSFTNYYIHWVKQRPGQGLEWIGWIYPGSGNTNYNEKFKGKATLTADTSSSTTNMQLSSLTSEDSAVYYCSTAPGGFDVWGSGTTVTVSS
VL: DIVMTQAAFSNPVTLGTSASISCRSSKSLLHSDGITYLYWYLQRPGQSPQLLIYRMSNLASGVPDRFSGSGSGTDFTLRISRVEAEDVGVYYCAQMLEFPLTFGAGTKLELKR
B3: F846C.1F5 (antibody, human IgG4 S228P, kappa, V domains shown)
VH: QIQLVQSGPELKKPGETVKISCKASGYTFTNYGMNWVKQAPGKGLKWMGWINTYTGEPSYADDFKGRFAFSLETSASTAYLQINNLKNEDMATYFCARWGGYDGDYYAMDYWGQGTSVTVSS
VL: NIMMTQSPSSLAVSAGEKVTMSCKSSQSVLYSSNQKNYLAWYQQKPGQSPKLLIYWASTRESGVPDRFTGSGSGTDFTLTISSVQPEDLAVYYCHQYLSSLTFGAGTKLELKR
notes: also called 846.1F5
B4: 23H9.2E4 (antibody, V domains shown)
VH: B1 VH
VL: DIQMTQTTSSLSASLGDRVTISCSASQGINNYLNWYQQKPDGTVKLLIYYASSLHSGVPSRFSGSGSGTDYSLTISNLEPEDIATYYCQQYSQVPYTFGSGTKLEIK
B5: F846TC.14A2 (antibody, human IgG4 S228P, kappa, V domains shown)
VH: QIQLVQSGPELKKPGETVKISCKASGYTFTNYGMNWVKQAPGKGLKWMGWINTYTGEPTYAGDLKGRFAFSLETSASTAYLQINNLKNEDTATYFCVRYTMDYWGQGTSVTVSS
VL: QAVVTQESALTTSPGETVTLTCRSSTGAVTTSNYANWVQEKPDHLFTGLIGGINNRVPGVPARFSGSLIGDKAALTITGAQTEDEAIYFCALWYSNHWVFGGGTKLTVLR
notes: also called 846T.14A2; 846.14A2
B6: F847C.4B10 (antibody, human IgG4 S228P, kappa, V domains shown)
VH: EVQLVETGGGLVKPGGSLKLSCAASGFTFSSYAMSWVRQTPEKRLEWVASISSGGSTYYPDSVKGRFTISRDNARNILYLQMSSLRSEDTAMYYCTRFTTVVEMDYWGQGTSVTVSS
VL: B5 VL with I53T, V57A, W98L
B7: F846TC.14E4 (antibody, human IgG4 S228P, kappa, V domains shown)
VH: QVTLKESGPGILQPSQTLSLTCSFSGFSLSTSGMGVGWIRQPSGKGLEWLAHIWWDDDKYYNTALKSGLTISKDASKNQVFLKIASMDTADTATYYCARNLYDGSYGYYAMDYWGQGTSVTVSS
VL: DIVMTQAAFSNPVTLGTSASISCRSSKSLLHTNGITFLYWYLQKPGQSPQPLIYQMSNLASGVPDRFSSSGSGTDFTLRISRVEAEDVGVYYCAQNLELPWTFGGGTKLEINR
notes: also called 846T.14E4
B8: F846C.2H3 (antibody, human IgG4 S228P, kappa, V domains shown)
VH: B3 VH
VL: B3 VL
notes: also called 846.2H3
B9: F846TC.16B5 (antibody, human IgG4 S228P, kappa, V domains shown)
VH: B3 VH with S59A
VL: B3 VL with P86A
notes: also called 846T.16B5
B10: F846C.1H12 (antibody, human IgG4 S228P, kappa, V domains shown)
VH: B3 VH with Y32F, M91I, D103A
VL: B3 VL with E17Q, N34S, T69S
notes: also called 846.1H12
B11: F846C.1B2 (antibody, human IgG4 S228P, kappa, V domains shown)
VH: B3 VH with D103A, Y111F
VL: B3 VL with M3W, M4L, K18M, S22T, T78S, P86A
notes: also called 846.1B2
B12: F847C.26F5 (antibody, human IgG4 S228P, kappa)
heavy: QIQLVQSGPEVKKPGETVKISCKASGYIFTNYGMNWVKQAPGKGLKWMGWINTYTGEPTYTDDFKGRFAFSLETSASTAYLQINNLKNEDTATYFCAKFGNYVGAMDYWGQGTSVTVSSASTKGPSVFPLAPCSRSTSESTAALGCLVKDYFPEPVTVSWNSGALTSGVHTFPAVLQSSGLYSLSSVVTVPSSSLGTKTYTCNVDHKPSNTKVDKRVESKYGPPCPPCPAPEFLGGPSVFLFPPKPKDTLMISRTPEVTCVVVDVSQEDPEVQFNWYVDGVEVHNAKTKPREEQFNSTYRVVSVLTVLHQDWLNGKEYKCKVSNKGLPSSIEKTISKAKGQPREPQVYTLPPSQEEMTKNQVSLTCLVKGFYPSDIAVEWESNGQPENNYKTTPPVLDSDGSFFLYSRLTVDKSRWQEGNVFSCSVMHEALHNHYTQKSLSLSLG
light: EIKMNQSPSSLSASLGDTITITCHASQNINVWLSWYQQKPGNIPKLLIYKASNLHTGVPSRFSGSGSGTGFTLTISSLQPEDIATYYCQQGQSYPYTFGGGTKLELKRTVAAPSVFIFPPSDEQLKSGTASVVCLLNNFYPREAKVQWKVDNALQSGNSQESVTEQDSKDSTYSLSSTLTLSKADYEKHKVYACEVTHQGLSSPVTKSFNRGEC
notes: also called 847.26F5
B13: F849C.8H3 (antibody, human IgG4 S228P, kappa, V domains shown)
VH: QVTLKESGPGILQPSQTLSLTCSFSGFSLSTFGMGVGWIRQPSGKGLEWLAHIWWDDDKHYNPALKSRLTISKDTSKNQVFLRIANVDTADNATYYCARIDYGDYVGFAYWGQGTLVTVSA
VL: B7 VL with V3G, T5R, H31Y, T32S, F37Y, Y41F, P51L, E86D, N112K
B14: F849C.8D10 (antibody, human IgG4 S228P, kappa, V domains shown)
VH: QVQLQQTGAELVKPGASVKLSCKASGYTFTSYWINWVKQRPGQGLEWIGNIYPGSSSIYYSEKFKSKATLTVDTSSSTAYMQLSSLTSDDSAVYYCARWGYWGQGTTLTVSS
VL: DVLMTQTPLSLPVSLGDQASISCRSSQDIVHSSGNTYLEWYLQKPGQSLKLLIYKVSNRFSGVPDRFSASGSGTDFTLKISRVEAEDLGVYYCFQGSHVPPTFGSGTKLEIKR
notes: also called 849.8D10
B15: recombinant human TGF-beta sRII/Fc (R&D Systems, 341-BR) (Fc fusion, UniProt P37173 24-159, looked up, not shown: a dimerising Fc or GST)
chain: IPPHVQKSVNNDMIVTDNNGAVKFPQLCKFCDVRFSTCDNQKSCMSNCSITSICEKPQEVCVAVWRKNDENITLETVCHDPKLPYHDFILEDAASPKCIMKEKKKPGETFFMCSCSSDECNDNIIFSEEYNTSNPD
notes: also called TGFβ R2; TGFBR2
B16: recombinant human TGF-beta RI/ALK-5 Fc chimera protein (R&D Systems, 3025-BR) (Fc fusion, UniProt P36897 24-125, looked up, not shown: a dimerising Fc or GST)
chain: AAALLPGATALQCFCHLCTKDNFTCVTDGLCFVSVTETTDKVIHNSMCIAEIDLIPRDRPFVCAPSSKTGSVTTTYCCNQDHCNKIELPTTVKSSPGLGPVE
notes: also called TGFβ RI; TGFBR1
B17: F846TC.7F10 (antibody, human IgG4 S228P, kappa, V domains shown)
VH: EVQLVESGGDLVKPGGSLKLSCAASGFTFSNYGLSWIRQTPDKRLEWVATISSGGSYTYYPDSVKGRFTISRDSAKNTLYLQMSSLKSEDTAMYYCARHAHYYGVSPYYFDYWGQGTCLTVSS
VL: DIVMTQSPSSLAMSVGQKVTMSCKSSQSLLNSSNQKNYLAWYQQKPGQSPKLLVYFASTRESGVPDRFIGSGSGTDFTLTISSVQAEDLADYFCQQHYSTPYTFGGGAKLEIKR
notes: also called 846T.7F10
B18: F846C.1H5 (antibody, human IgG4 S228P, kappa, V domains shown)
VH: EVQLLESGGGLVKPGGSLKLSCAASGFTFSSYAMSWVRQTPEKRLEWVASISSGGDTYYPDSVKGRFTISRDNARNILYLQMSSLRSEDTAMYYCASYGNSLFDYWGQGTTLTVSS
VL: DVVMTQTPLSLPVSLGDQASISCRSSQSLVHNSGNTYLHWYLQRPGQSPNLLIYKVSNRFSGVPDRFSGSGSGTDFTLKISRVAAEDLGVYFCSQSTHVPPTFGGGTKLEIKR

What follows are binders tested against T1, human Galectin-3 (Gal3), full-length recombinant (human, UniProt P17931 2-250) (assay: cell-based or functional assay).
T1 sequence (P17931 2-250 limits assumed): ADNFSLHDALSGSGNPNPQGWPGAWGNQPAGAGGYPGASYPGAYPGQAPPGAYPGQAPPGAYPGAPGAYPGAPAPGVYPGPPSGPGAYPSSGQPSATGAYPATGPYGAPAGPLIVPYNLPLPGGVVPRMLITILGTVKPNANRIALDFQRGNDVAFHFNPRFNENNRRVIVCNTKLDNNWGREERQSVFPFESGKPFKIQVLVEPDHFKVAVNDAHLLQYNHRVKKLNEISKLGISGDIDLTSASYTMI

Binder | decrease in TGFβ induction of ColA1 mRNA in LX2 cells (qRT-PCR)
B1 | 85%
B2 | 58%

Each binder was assayed against T1, human Galectin-3 (Gal3), full-length … (assay: blocking ELISA, Gal3 coated, biotin-Abeta42 oligomer).

Binder | % blocking of Gal3-Abeta42 oligomer binding
B3 | > 90%
B1 | > 90%
B4 | < 26%
B5 | > 90%
B6 | < 26%
B7 | > 90%

What follows are binders tested against T1, human Galectin-3 (Gal3), full-length … (assay: blocking ELISA, Gal3 coated, biotin-APP695).

Binder | % blocking of Gal3-APP695 binding
B3 | > 90%
B8 | > 90%
B9 | > 90%
B10 | > 90%
B11 | > 90%
B12 | 87%
B1 | > 90%
B5 | > 90%
B6 | > 83%
B7 | > 90%
B13 | > 90%
B14 | > 90%

What follows are binders tested against T1, human Galectin-3 (Gal3), full-length … (assay: SPR (Carterra LSA, HC30M chip with Protein A/G, receptor-Fc captured, Gal3 0-128 nM as analyte, 25 °C)).
Experimental: Briefly, kinetics experiment was performed on Caterra LSA at 25° C. A HC30M chip was immobilized with recombinant Protein A/G.
The complex was allowed to associate and dissociate for 300 s and 240 s, respectively. Eight cycles of kinetics were done sequentially for the dilution series.

Binder | Kd | koff | kon
B15 | 725 nM | 0.0837 s⁻¹ | 116000 M⁻¹ s⁻¹
B16 | 314 nM | 0.0351 s⁻¹ | 112000 M⁻¹ s⁻¹

The binders below were run against T1, human Galectin-3 (Gal3), full-length … (assay: blocking ELISA, Gal3 coated, TREM2-His).
Experimental: The plate was incubated for an hour at room temperature with gentle rocking. Thereafter, the plate was washed three times with PBST. Anti-6× His tag antibody-HRP (Abcam, ab1269) was then added to the wells at 1:3000 dilution in 2% BSA in PBST. The plate was incubated at room temperature for an hour with gentle rocking and then washed three times with PBST.

Binder | % blocking of Gal3-TREM2 binding
B3 | > 90%
B8 | > 90%
B9 | > 90%
B11 | > 90%
B12 | < 47%
B1 | > 90%
B4 | > 90%
B7 | > 90%
B14 | > 90%

The binders below were run against T1, human Galectin-3 (Gal3), full-length … (assay: blocking ELISA, Gal3 coated, biotin-Tau aggregates).
Experimental: The plate was incubated for an hour at room temperature with gentle rocking. Thereafter, the plate was washed three times with PBST. […] The plate was incubated at room temperature for an hour with gentle rocking and then washed three times with PBST.

Binder | % blocking of Gal3-Tau aggregates binding
B3 | > 90%
B11 | > 90%

Each binder was assayed against T1, human Galectin-3 (Gal3), full-length … (assay: blocking ELISA, Gal3 coated, biotin-Abeta42 peptide).

Binder | % blocking of Gal3-Abeta42 peptide binding
B3 | > 90%
B8 | > 90%
B9 | > 90%
B11 | > 90%
B1 | > 90%
B4 | < 46%
B5 | > 90%
B7 | > 90%
B14 | > 90%

These binders were tested against T1, human Galectin-3 (Gal3), full-length … (assay: blocking ELISA, Gal3 coated, biotin-TLR4).

Binder | % blocking of Gal3-TLR4 binding
B3 | > 90%
B8 | > 90%
B9 | > 90%
B11 | > 90%
B1 | > 90%
B4 | > 90%
B5 | > 90%
B7 | > 90%
B14 | > 90%

What follows are binders tested against T1, human Galectin-3 (Gal3), full-length … (assay: not stated. Exponent is printed without a minus sign; value taken as a negative power of ten because the column is a KD in M).

Binder | Kd
B3 | 1.63 nM
B8 | 1.72 nM
B9 | 0.927 nM
B10 | 0.622 nM
B11 | 5.74 nM
B12 | 20.9 nM
B5 | 3.26 nM
B6 | 21.5 nM
B7 | 0.556 nM
B17 | 1.4 nM
B14 | 3.75 nM
B18 | 3.41 nM
